Assay results as given in patent US20240190999A1.
Each block holds one binder with its values, some of them ahead of it.

Assays:
[1] = molecular target: biotinylated cynomolgus 4-1BB (bio.c4-1BB) (cynomolgus monkey) (UniProt A9YYE7); assay: SPR (ProteOn XPR36), biotinylated c4-1BB immobilised on GLC chip, construct as analyte
[2] = molecular target: biotinylated cynomolgus 4-1BB (bio.c4-1BB) (cynomolgus monkey) (UniProt A9YYE7); assay: SPR (ProteOn XPR36); end of the group's range, tied to #44 by Table 15
[3] = molecular target: biotinylated cynomolgus 4-1BB (bio.c4-1BB) (cynomolgus monkey) (UniProt A9YYE7); assay: SPR (ProteOn XPR36), bio.c4-1BB on NLC chip, MpA analyte; mean of triplicate
[4] = molecular target: biotinylated human 4-1BB-Fc (bio.h4-1BB-Fc) (human) (UniProt Q07011); assay: SPR (ProteOn XPR36), sequential injections; 100 nM MpA on 360 RU bio.h4-1BB-Fc on NLC chip
biotinylated human 4-1BB-Fc (bio.h4-1BB-Fc) (human), sequence (Q07011 24-186 limits assumed): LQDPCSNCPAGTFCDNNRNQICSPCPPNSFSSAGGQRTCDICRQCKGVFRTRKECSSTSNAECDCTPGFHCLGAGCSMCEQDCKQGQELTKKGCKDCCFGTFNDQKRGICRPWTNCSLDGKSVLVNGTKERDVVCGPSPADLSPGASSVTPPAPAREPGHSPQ

[5] = molecular target: biotinylated cynomolgus 4-1BB (bio.c4-1BB) (cynomolgus monkey) (UniProt A9YYE7); assay: SPR (ProteOn XPR36), bio.c4-1BB on NLC chip, MpA analyte; mean of triplicate; apparent affinity (bivalent)
[6] = molecular target: biotinylated cynomolgus 4-1BB (bio.c4-1BB) (cynomolgus monkey) (UniProt A9YYE7); assay: SPR (ProteOn XPR36); end of the group's range, tied to #47 by Table 15
[7] = molecular target: biotinylated cynomolgus 4-1BB (bio.c4-1BB) (cynomolgus monkey) (UniProt A9YYE7); assay: SPR (ProteOn XPR36); told of the group, largest difference is that of #47 by Table 15

biotinylated cynomolgus 4-1BB (bio.c4-1BB) (cynomolgus monkey), sequence (A9YYE7 entry or part of it): as the sequence (Q07011 24-186 limits assumed) above, with P4L, N19S, R50K, T66I, P67S, F69Y, G75E, V149A counted along it

- Kd [1]: 1.48 nM
B1: bispecific construct #49 (designed binder)
chain: MRGSHHHHHHGSDLGEKLLVAALYGQDDEVRILLAAGADVNAKDQWGLTPLHKAALQGHLEIVEVLLKAGADVNAKDERGHTPLHWAARFGHLEIVEVLLKAGADVNAQDQKGYTPADLAALWGHEDIAEVLQKAAGSPTPTPTTPTPTPTTPTPTPTGSDLGKKLLVAANVGQDDEVRILLAAGADVNAKDYHGYTPLHHAATYGHLEIVEVLLKAGADVNAKDQTGLTPLHLAAAKGHLEIVEVLLKAGADVNAQDHHGYTPADLAAFVGHEDIAVVLQKLN

- Kd [6]: 1.1 to 2.9 nM
- Kd [1]: 2.9 nM
- fold difference in binding affinity as compared to human 4-1BB [7]: < 4 fold
B4: bispecific construct #47 (designed binder)
chain: MRGSHHHHHHGSDLGEKLLVAALYGQDDEVRILLAAGADVNAKDQWGLTPLHKAALQGHLEIVEVLLKAGADVNAKDERGHTPLHWAARFGHLEIVEVLLKAGADVNAQDQKGYTPADLAALWGHEDIAEVLQKAAGSPTPTPTTPTPTPTTPTPTPTGSDLGKKLLEAARAGQDDEVRELLKAGADVNAKDTYGETPLHLAAWKGHLEIVEVLLKAGADVNAKDSIGITPLHVAAHHGHLEIVEVLLKAGADVNAKDKWGRTPLHLAALLGHLEIAEVLLKAGADVNAQDKSGKTPADLAADAGHDDIAEVLQKLN

Further lines, the binder ahead of its results:

B2: bispecific construct #44 (designed binder)
chain: MRGSHHHHHHGSDLGEKLLVAALYGQDDEVRILLAAGADVNAKDQWGLTPLHKAALQGHLEIVEVLLKAGADVNAKDERGHTPLHWAARFGHLEIVEVLLKAGADVNAQDQKGYTPADLAALWGHEDIAEVLQKAAGSPTPTPTTPTPTPTTPTPTPTGSDLGQKLLKAAQEGQDDEVRELLKAGADVNAKDLRGITPLHVAAWQGHLEIVEVLLKAGADVNAKDSKGETPLHLAAFRGHLEIVEVLLKAGADVNAQDQQGETPADLAALAGHVDIAEVLQKLN
- Kd [2]: 1.1 to 2.9 nM
- Kd [1]: 1.12 nM

B3: Multispecific binding protein A (MpA) (designed binder)
chain: GSDLGKKLLEAARAGQDDEVRELLKAGADVNAKDYFSHTPLHLAARNGHLKIVEVLLKAGADVNAKDFAGKTPLHLAAADGHLEIVEVLLKAGADVNAQDIFGKTPADIAADAGHEDIAEVLQKAAGSPTPTPTTPTPTPTTPTPTPTGSDLGKKLLEAARAGQDDEVRELLKAGADVNAKDVLGWTPLHLAAFEGHLEIVEVLLKAGADVNAKDKKGWTPLQLAARTGHLEIVEVLLKAGADVNAKDHIGATPLHLAAWQGHPEIVEVLLKAGADVNAQDKSGKTPADLAADAGHEDIAEVLQKAAGSPTPTPTTPTPTPTTPTPTPTGSDLGQKLLKAAQEGQDDEVRELLKAGADVNAKDLRGITPLHVAAWQGHLEIVEVLLKAGADVNAKDSKGETPLHLAAFRGHLEIVEVLLKAGADVNAQDQQGETPADLAALAGHVDIAEVLQKAAGSPTPTPTTPTPTPTTPTPTPTGSDLGQKLLKAAQEGQDDEVRELLKAGADVNAKDLRGITPLHVAAWQGHLEIVEVLLKAGADVNAKDSKGETPLHLAAFRGHLEIVEVLLKAGADVNAQDQQGETPADLAALAGHVDIAEVLQKAAGSPTPTPTTPTPTPTTPTPTPTGSDLGKKLLEAARAGQDDEVRELLKAGADVNAKDYFSHTPLHLAARNGHLKIVEVLLKAGADVNAKDFAGKTPLHLAAADGHLEIVEVLLKAGADVNAQDIFGKTPADIAADAGHEDIAEVLQKAA
- koff [3]: 2.7e-05 s⁻¹
- kon [3]: 2.1e+06 M⁻¹ s⁻¹
- Binding stoichiometry [4]: 0.7
- Kd [5]: 0.014 nM
